Assay results from the DeepSol protein solubility set.

Test: soluble on expression in E. coli; label from the status in PepcDB or PDB records

Sequence | soluble on expression in E. coli
GSHMLTKQQIRYCLDEMAKMFPDAHCELVHRNPFELLIAVVLSAQCTDALVNKVTKRLFEKYRTPHDYIAVPLEELEQDIRSIGLYRNKARNIQKLCAMLIDKYNGEVPRDRDELMKLPGVGRKTANVVVSVAFGVPAIAVDTHVERVSKRLGFCRWDDSVLEVEKTLMKIIPKEEWSITHHRMIFFGRYHCKAQSPQCPSCPLLHLCREGKKRMRKREEKAANQK | soluble
EKGLEIAQERKARDEGWGDSIATMEMILKNAQGESSTRLMRLKSLEVEGDGDKGLTIFDQPRDVTGTAFLNHSHTIGADDQWLYLPALKRVKRISSRNKSGPFMGSEFAYEDLSSFEIEKYRFNHLKDEKFNGQDVFVLEQIPTDKNSGYTKQVVWLDKAHYRPLKVEFYDRKGALLKTLTFANYKQYLDKYWRAHTMAMTNHQTGKSTELNTSDLRFQTGLEENDFNKNVLKR | soluble
MGHHHHHHSHMAPPRIGTHNGTFHCDEALACALLRLLPEYRDAEIVRTRDPEKLASCDIVVDVGGEYDPRRHRYDHHQRSFTETMSSLSPGKPWQTKLSSAGLIYLHFGHKLLAQLLGTSEEDSMVGTLYDKAGFKRAMDLVQEEFLQRLDFYQHSWLPARALVEEALAQRFQVDPSGEIVELAKGACPWKEHLYHLESGLSPPVAIFFVIYTDQAGQWRIQCVPKEPHSFQSRLPLPEPWRGLRDEALDQVSGIPGCIFVHASGFIGGHRTREGALSMARATLAQRSYLPQIS | soluble
MSLKIYGVYRSRASRPLWLLAELDLPFEHVPVIQANRVAHPHGPEAPLNTASAAYLAVNPLGQIPCLEEEGLILTESLAITLHIARTQGGQLGPRSEPEDALMVSWSLFAATAVEPPALEIQLIQRSGGGTSPEGQAAIAIAAERLRRPLARLERHFAAEDYLVGGRFTVADLNLAETLRYGQAHPALLEPFPAVAAWLDRCQSRPAFRLMMERRAAEGHHHHHH | soluble
FEAQKAKANKAVDGGGGSLVPRGSGGGGSERHFVYQFMGECYFTNGTQRIRYVTRYIYNREEYVRYDSDVGEHRAVTELGRPDAEYWNSQPEILERTRAELDTVCRHNYEGPETHTSLRRLEQPNVVISLSRTEALNHHNTLVCSVTDFYPAKIKVRWFRNGQEETVGVSSTQLIRNGDWTFQVLVMLEMTPRRGEVYTCHVEHPSLKSPITVEWKA | soluble
MIVPEVSSSSTNEANVPESSAGKYTYKDIRDDRVLTYFDLRRGESKTFTVRLQATYAGNFILPAIQCEAMYDAAVQARTKAGRTTVSR | not soluble
MGSDKIHHHHHHMFLVISVVGSSNIDIVLKVDHFTKPGETQKAIEMNVFPGGKGANQAVTVAKIGEKGCRFVTCIGNDDYSDLLIENYEKLGITGYIRVSLPTGRAFIEVDKTGQNRIIIFPGANAELKKELIDWNTLSESDILLLQNEIPFETTLECAKRFNGIVIFDPAPAQGINEEIFQYLDYLTPNEKEIEALSKDFFGEFLTVEKAAEKFLELGVKNVIVKLGDKGVLLVNKNEKKHFPTFKVKAVDTTAAGDVFNGAFAVALSEGKNPEEAVIFGTAAAAISVTRLGAQSSIPAREEVEAFLKNL | soluble
MGSDKIHHHHHHMILKFLNETLPWVRKPSRYIGREINSVVKDPEEISLRIALVFPDTYEVGTSNHGLEILYHILNEQPDVWAERSYLPWIDMIERMKEKDIPLYTMESYTPLYQMDAVGISLEYELSYTNVVEVLKLSKIPIFFWERKRRDPIVLGGGPCSSNPEPIYGFFDAILIGDGEEAILEIAQVLKETKGEERETIWKELSRIEGVYVPAFYEQKGRKIVPVSPEYPRTIKRRIVKDLNSQPVPVKKIVPNVESVHDRAVIEVARGCTRGCRFCHASVYYRPVRERSLENILENVEEMLKNTGYEEVSLLSLSTMDHTQIGEIVSELLKRYSEKKIAVSIPSTRMDRFGVEIAGRIASVRKTGLTFAPEAATQRLRNIINKNISEEDIFATLEAAKKSGWRRVKLYFMMGLPGETNEDLEEMVKLLERVKRLGFKEVSASVSVFVPKPHTPFQFARQISPEEAYEKIKTLKRAKRSARISYHDPRMSLLEGVFSRGDRKLLDLIVKAHELGALFDEWSEMFRFDLWEKAFDETGIDPNDYLREIDPSEDFPWDHIDMGVTKEFLKEEYRKALKGETTDDCRWNRCYLCGVCFRFGVKNVLFGGERG | not soluble
GMNDLKRLPYEPVKGLLPRPAVGTSERVITLPEPDRTSGMPLMGTLWLRKSTREFDQQPLPLKQLSELLWAAAGVNRSLGGGRTAPSPYGETVIDVYVALPAGLYRYDPVHHCLELKRAADLRSMTGYQDFVGMAPLDLVFVANHGRMQEMPPKLRETFSAAAAGAMAENAYLYCASAGLGAVVRGWLNRRQLAEHMSLNEDEEPILSQTIGRAASHVTTTQA | soluble
MGSDKIHHHHHHMPTGLDCTQTMLYRRFGKTNLHLSVFSLGTMRYLADSENVQQTIATALALGINHIETARGYGKSEEYFGQAIKVGLSVARSQLYVTTKIPPTSDADSMRRYIDESLERLNLDYLDCLGIHGLNTWEHLEWVQAKGGCMKAVEEAINDGRIRHVGFSTHGSLEVIQAAINTDFFEFVNLHYYYFFQRNAPAIKLASEKDMGIFIISPADKGGKLYTAPQTLQDLCQPLSPLELNYRFLLSDQRITTLSVGPATPEELVEPLQVADSCGELTSAEITIFQRLQNHQESVLETDKCSQCYACLPCPENINIPEVLRLRNLAVAYNMTDYGQYRYGMFENAGHWFPGMKANRCTECGDCLPRCPEKLDIPNLLEDAHNRLNGRAGRRLWG | not soluble
MQGFASQPESSYWYPETLLDWSPETDPDARFNRSSIPLREREVLYTVNDTQQTDAKLVALSALNPNTSGVPSQGGNEFFANTFGFWQYVDLMVYWAGSAGEGIITPPSGDVIDAAHRNGVPILGNVFFPPKVYGGQEEWVDKMLVRGEDGSFPAADKLLEVAEYYGFDGWFINQETEGGTPETAKDMQEFLLYLQENKPEGMHIMWYDSMISNGDIRWQNYLTDENAMFFQAGNRKVADSMFLNFWWWNHSQERSKQKAASLGRSPYDLYAGIDVEANGTNTYVNWQQVFPEGGEPHTSLGIYRPDWAFKSTDTMRDFYDREQLFWVGPSGNPAKVDEHAEWKGMATYFPEKTVINELPFVTHFNTGSGQFFAINGKTKLEHHHHHH | not soluble
MGSDKIHHHHHHVLNVNELVKTELHCHLDGSLSLGVIRQLAQMAKITIPAEDEALRKLVSVHGKVDSLMAYLKLFDFVRPLLQTATALELAAYDLVRQAASDKVIYIEVRFAPELSTDQDLTILEAVSAVLVGLNRGQEDFGVLAKLLVCGLKQTNTNQTKELFSAIADLAPKGLVGFDFAGNEADYPTEELRDIIQFTQSLGYPMTFHAGECGCVINVIQALELGIRRIGHGTALTRNPEAIQAFVNSGATLEMCLTSNLQTGAADSIEYFPYRELVEAGANITINTDNRTVSNTTLNREYQLFVEYFGTSKADFYRFNQNAIQASFASEGEKKVLLELLDQQY | not soluble
MIDFSNFYQLIAKSPLSHWLETLPAQVAAWQRDALHGKFREWERAVEFLPELTPWRLDLLHSVTAESETPLSEGHQRRIENLLKNLMPWRKGPYSLYGINIDTEWRSDWKWERVLPHLSDLTGRTILDVGCGSGYHMWRMIGAGAHLAVGIDPTQLFLCQFEAVRKLLGNDQRAHLLPLGIEQLPALEAFDTVFSMGVLYHRRSPLDHLWQLKDQLAPGGELVLETLVVEGDENTVLVPGDRYAQMRNVYFIPSAAALKMWLEKCGFIDVRIVDACVTSTEEQRRTEWMTTESLADFLDPQDQRKTVEGYPAPLRAVIIATKPETQQSLAKKAR | not soluble
MGSDKIHHHHHHMSQVIPASSQEKRRERIVSYVTRHGFARVEALAELFEVSAMTIHRDLEALAADNLVERIRGGARSVSPSMSELAVEQRRHLHRTVKEALCTAAARLIPEGAVVAIDDSTTLESLVEKLPQRSPSALITHSLKTMADHRVRAGMSDIRLIACAGLYFAETDSFLGKATSAQLNELSADISFVSTTAVRATGEVPALFHPDMEAADTKRALIGIGSVRVLVVDSSKFGSAGVFKVASIEEFDHIIIDQQCTREQRDLLRNSRAQIHVIDHNGDEILDTPTEEDF | not soluble
MGSDKIHHHHHHMSRAIPAMPLAPASAALDLSKVKTLVCEPSLPIRQGIRLALNNVGIRDITEATTFLAAHQACKEGDHDFLLLNQEIETNDTAFMVRELRSGALGRDPFILTVMLLSSREEPKVRSAIDCGPDDLLLIPFAPDQLMNRLKAQIERRKPFVVTHDYIGPDRRAAPRPGATSATQFQVPNPVRARGTNVPRDRYDRMKQESIVTISVERIKRLAATMDWECNALTVSAREGRMTPESTYRSLLKLEQVTAELSLRVTKQLGHSTETIDSLTQYLPPVEDGSEQCKLFRC | not soluble
MLTLITFPKAFGLYSASPFCVKAAYLLTLAGEPWQRQDQTDPRRMPHGKLPVLRTPERLVPDSDGIRAWLESRGAEFDRGLTDAQRASARALIHMAEDHFYPYLVLDRWGNDAVWAIIRDTFFGEIPRLLRKPVTNRIRAQVLRGLDFQGMARFSEAERRDRVERSFEAVTALLWQKPFLFGDAPTGADLSVAPMLAAMRATPVATPLQRRVAGDRVLSDYIDRMDATLPLT | not soluble
MLFCPLLLIFLIANSNGEPLPPDMKDLQNHLDTFQKAVDTGDKKALREMMPVNQRISEEKLDEFIKTRKSFKMTAKSAQATSSGITGKVDYAIGKATLLLDVVLEKSSSSPSAYKFVSISKQSIPSQRREIPDCFYTLLIMCPYDLIVALAQTAENVLKG | not soluble
HLKFQSVFDIIGPVMIGPSSSHTAGAVRIGKVVHSIFGEPSEVTFHLYNSFAKTYQGHGTDKALVAGILGMDTDNPDIKNSLEIAHQKGIKIYWDILKDSNSPHPNTAKITVKNGDRSMSITGVSIGGGNIQVTELNG | not soluble
MSIHVNEANLTFHLQTDHTSYIFQIMKNGEAGQIYYGPRIHVQPTYQNLMSQEWRDATPSLNEENPNFQPATIKAEYASLGKGDFRQPAFQVTQANGSRITELTYDHYQLLTGKQRLANLPSTFDDTDDDAQTLVVSFNDRITGLALDLNYSIFPHQDVIVKSAKFTNPSSEKLVLNRALSSQLDLPDANYDLIQFSGTWARERHLYRHPLRPGMQSISSLRMASSHQQNPFMMLARPQTTDEQGAVFGFNLVYSGNFLDAIEVDQYSTSRILTGINPDEFGWNLAPQATFQTPEAILSYTSAGMNQLSQQMASFYQQHLVNPRFAHEERPVLINNWEATYFDFNEAKLMTIVNQAKRLGIEMFVLDDGWFGHRDDDTTSLGDWFVDQRKFPDGIEHFSQAVHQQGMKFGLWFEPEMVSVDSDLYQQHPDWLIHAPKSTPTPGRHQFVLDMARPEVVDYLFKLMSQMIESANLDYIKWDMNRYATEMFSSRLTSDQQLELPHRYILGVYQLYARLTQAYPNVLFESCASGGGRFDLGMMYYAPQAWTSDDTDAAERLLIQFGTSYGYPQAMMGAHVSAVPNDQMGRITSLKTRGAVAFFGDLGYELDITKMAPTELDQVKKQVAFYKCYRQLFQFGKFYRIDSPFVEDGNVTSWQVVSDDQKQAIAARYQLLNHPNAPYTRFYFKGLRPNQRYQINDDPSTYYGDELMNAGYFVPTILADGQESKDFYTQLFVVTAILEHHHHHH | soluble
DITGIPTGFNELDKMTAGFQRNDLIIVAARPSVGKTAFALNIAQNVATKTDENVAIFSLEMGAEQLVMRMLCAEGNINAQNLRTGALTSDDWQKLTIAMGTLSNSGIYIDDTPGVRVNEIRSKCRRLKQETGLGMIVIDYLQLIAGSGRGGENRQQEVSEISRSLKALARELEVPVIALSQLSRSVEQRQDKRPMMSDI | not soluble
